Laboratory results from IntAct's records for PubMed 16938345.

B1: Linker for activation of T-cells family member 1 (Homo sapiens), O43561 (parent)
chain: MEEAILVPCVLGLLLLPILAMLMALCVHCHRLPGSYDSTSSDSLYPRGIQFKRPHTVAPWPPAYPPVTSYPPLSQPDLLPIPRSPQPLGGSHRTPSSRRDSDGANSVASYENEGASGIRGAQAGWGVWGPSWTRLTPVSLPPEPACEDADEDEDDYHNPGYLVVLPDSTPATSTAAPSAPALSTPGIRDSAFSMESIDDYVNVPESGESAEASLDGSREYVNVSQELHPGAAKTEPAALSSQEAEEVEEEGAPDYENLQELN

Variants of: B1
Conditions: with grb2_human GRB2, P62993
grb2_human GRB2, P62993, sequence (P62993 whole entry, looked up): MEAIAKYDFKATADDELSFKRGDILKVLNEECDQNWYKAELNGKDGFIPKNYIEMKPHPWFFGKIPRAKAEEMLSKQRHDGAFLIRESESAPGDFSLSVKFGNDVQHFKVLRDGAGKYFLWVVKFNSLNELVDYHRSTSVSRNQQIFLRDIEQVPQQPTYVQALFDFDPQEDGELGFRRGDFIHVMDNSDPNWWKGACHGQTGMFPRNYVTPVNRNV

| Variant | effect of a mutation on the interaction |
| --- | --- |
| Y200F;Y220F | decreasing interaction |
